Test results published in patent US20190300590A1 (PROTAGONIST THERAPEUTICS, published 2019).
Bridges are numbered along the chain shown (N, C = ends). Primed or numbered codes have the meaning given here. Where no end group is shown, it is not given here. [ ]: non-standard residue; d: D form. Bip = N[C@@H](Cc1ccc(-c2ccccc2)cc1)C(=O)O; 1Nal = N[C@@H](Cc1cccc2ccccc12)C(=O)O; NMeH = CN[C@@H](Cc1c[nH]cn1)C(=O)O; NMeE = CN[C@@H](CCC(=O)O)C(=O)O; Aic′ = not defined here; Aib = CC(C)(N)C(=O)O; PEG1 = NCCOCCC(=O)O; AEA = NCCOCC(=O)O

T1: IL23R_huFC (human, UniProt Q5VWK5 24-353)
T1 sequence (looked up): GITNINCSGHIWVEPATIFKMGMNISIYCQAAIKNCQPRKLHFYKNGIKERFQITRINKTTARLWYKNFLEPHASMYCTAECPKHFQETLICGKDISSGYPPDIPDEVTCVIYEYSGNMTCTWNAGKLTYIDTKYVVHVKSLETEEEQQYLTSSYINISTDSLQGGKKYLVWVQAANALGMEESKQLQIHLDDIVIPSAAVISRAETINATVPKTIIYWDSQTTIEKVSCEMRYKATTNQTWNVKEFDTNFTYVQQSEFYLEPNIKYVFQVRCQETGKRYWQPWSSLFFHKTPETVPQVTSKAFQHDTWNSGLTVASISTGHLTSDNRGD

B1: Ac-CADWVCY-[Bip]-HTFG-[AEA]-[(D)Lys]-NH2 (peptide)
peptide: Ac-CADWVCY[Bip]HTFG[AEA][dK]-NH2
modifications: disulfide 1-6
SMILES: CC(=O)N[C@H]1CSSC[C@@H](C(=O)N[C@@H](Cc2ccc(O)cc2)C(=O)N[C@@H](Cc2ccc(-c3ccccc3)cc2)C(=O)N[C@@H](Cc2c[nH]cn2)C(=O)N[C@H](C(=O)N[C@@H](Cc2ccccc2)C(=O)NCC(=O)NCCOCC(=O)N[C@H](CCCCN)C(N)=O)[C@@H](C)O)NC(=O)[C@H](C(C)C)NC(=O)[C@H](Cc2c[nH]c3ccccc23)NC(=O)[C@H](CC(=O)O)NC(=O)[C@H](C)NC1=O
B2: Ac-CADWVCY-[1-Nal]-[N-Me-His]-[(D)Ala]-F-[Aib]-NH2 (peptide)
peptide: Ac-CADWVCY[1Nal][NMeH][dA]F[Aib]-NH2
modifications: disulfide 1-6
SMILES: CC(=O)N[C@H]1CSSC[C@@H](C(=O)N[C@@H](Cc2ccc(O)cc2)C(=O)N[C@@H](Cc2cccc3ccccc23)C(=O)N(C)[C@@H](Cc2c[nH]cn2)C(=O)N[C@H](C)C(=O)N[C@@H](Cc2ccccc2)C(=O)NC(C)(C)C(N)=O)NC(=O)[C@H](C(C)C)NC(=O)[C@H](Cc2c[nH]c3ccccc23)NC(=O)[C@H](CC(=O)O)NC(=O)[C@H](C)NC1=O
B3: Ac-CADWVCY-[1-Nal]-HTF-[Aib]-NH2 (peptide)
peptide: Ac-CADWVCY[1Nal]HTF[Aib]-NH2
modifications: disulfide 1-6
SMILES: CC(=O)N[C@H]1CSSC[C@@H](C(=O)N[C@@H](Cc2ccc(O)cc2)C(=O)N[C@@H](Cc2cccc3ccccc23)C(=O)N[C@@H](Cc2c[nH]cn2)C(=O)N[C@H](C(=O)N[C@@H](Cc2ccccc2)C(=O)NC(C)(C)C(N)=O)[C@@H](C)O)NC(=O)[C@H](C(C)C)NC(=O)[C@H](Cc2c[nH]c3ccccc23)NC(=O)[C@H](CC(=O)O)NC(=O)[C@H](C)NC1=O
B4: Ac-CADWVCY-[1-Nal]-H-[AEP]-G-NH2 (peptide)
peptide: Ac-CADWVCY[1Nal]H[PEG1]G-NH2
modifications: disulfide 1-6
SMILES: CC(=O)N[C@H]1CSSC[C@@H](C(=O)N[C@@H](Cc2ccc(O)cc2)C(=O)N[C@@H](Cc2cccc3ccccc23)C(=O)N[C@@H](Cc2c[nH]cn2)C(=O)NCCOCCC(=O)NCC(N)=O)NC(=O)[C@H](C(C)C)NC(=O)[C@H](Cc2c[nH]c3ccccc23)NC(=O)[C@H](CC(=O)O)NC(=O)[C@H](C)NC1=O
B5: Ac-CADWVCY-[1-Nal]-H-[Aib]-FG-NH2 (peptide)
peptide: Ac-CADWVCY[1Nal]H[Aib]FG-NH2
modifications: disulfide 1-6
SMILES: CC(=O)N[C@H]1CSSC[C@@H](C(=O)N[C@@H](Cc2ccc(O)cc2)C(=O)N[C@@H](Cc2cccc3ccccc23)C(=O)N[C@@H](Cc2c[nH]cn2)C(=O)NC(C)(C)C(=O)N[C@@H](Cc2ccccc2)C(=O)NCC(N)=O)NC(=O)[C@H](C(C)C)NC(=O)[C@H](Cc2c[nH]c3ccccc23)NC(=O)[C@H](CC(=O)O)NC(=O)[C@H](C)NC1=O
B6: Ac-CADWVCY-[1-Nal]-H-[Aib]-[(D)Phe]-G-NH2 (peptide)
peptide: Ac-CADWVCY[1Nal]H[Aib][dF]G-NH2
modifications: disulfide 1-6
SMILES: CC(=O)N[C@H]1CSSC[C@@H](C(=O)N[C@@H](Cc2ccc(O)cc2)C(=O)N[C@@H](Cc2cccc3ccccc23)C(=O)N[C@@H](Cc2c[nH]cn2)C(=O)NC(C)(C)C(=O)N[C@H](Cc2ccccc2)C(=O)NCC(N)=O)NC(=O)[C@H](C(C)C)NC(=O)[C@H](Cc2c[nH]c3ccccc23)NC(=O)[C@H](CC(=O)O)NC(=O)[C@H](C)NC1=O
B7: Ac-CQTWQCYWRKNG-[AEA]-[(D)-Lys]-NH2 (peptide)
peptide: Ac-CQTWQCYWRKNG[AEA][dK]-NH2
modifications: disulfide 1-6
SMILES: CC(=O)N[C@H]1CSSC[C@@H](C(=O)N[C@@H](Cc2ccc(O)cc2)C(=O)N[C@@H](Cc2c[nH]c3ccccc23)C(=O)N[C@@H](CCCNC(=N)N)C(=O)N[C@@H](CCCCN)C(=O)N[C@@H](CC(N)=O)C(=O)NCC(=O)NCCOCC(=O)N[C@H](CCCCN)C(N)=O)NC(=O)[C@H](CCC(N)=O)NC(=O)[C@H](Cc2c[nH]c3ccccc23)NC(=O)[C@H]([C@@H](C)O)NC(=O)[C@H](CCC(N)=O)NC1=O
B8: Ac-CQTWQCYWRENG-[AEA]-[(D)-Lys]-NH2 (peptide)
peptide: Ac-CQTWQCYWRENG[AEA][dK]-NH2
modifications: disulfide 1-6
SMILES: CC(=O)N[C@H]1CSSC[C@@H](C(=O)N[C@@H](Cc2ccc(O)cc2)C(=O)N[C@@H](Cc2c[nH]c3ccccc23)C(=O)N[C@@H](CCCNC(=N)N)C(=O)N[C@@H](CCC(=O)O)C(=O)N[C@@H](CC(N)=O)C(=O)NCC(=O)NCCOCC(=O)N[C@H](CCCCN)C(N)=O)NC(=O)[C@H](CCC(N)=O)NC(=O)[C@H](Cc2c[nH]c3ccccc23)NC(=O)[C@H]([C@@H](C)O)NC(=O)[C@H](CCC(N)=O)NC1=O
B9: Ac-CQTWQCYWRENG-[AEA]-[(D)-Lys]-NH2 (peptide)
peptide: Ac-CQTWQCYWRENG[AEA][dK]-NH2
modifications: disulfide 1-6
SMILES: CC(=O)N[C@H]1CSSC[C@@H](C(=O)N[C@@H](Cc2ccc(O)cc2)C(=O)N[C@@H](Cc2c[nH]c3ccccc23)C(=O)N[C@@H](CCCNC(=N)N)C(=O)N[C@@H](CCC(=O)O)C(=O)N[C@@H](CC(N)=O)C(=O)NCC(=O)NCCOCC(=O)N[C@H](CCCCN)C(N)=O)NC(=O)[C@H](CCC(N)=O)NC(=O)[C@H](Cc2c[nH]c3ccccc23)NC(=O)[C@H]([C@@H](C)O)NC(=O)[C@H](CCC(N)=O)NC1=O
B10: Ac-CQTWQCYWRKNG-[AEA]-[(D)-Lys]-NH2 (peptide)
peptide: Ac-CQTWQCYWRKNG[AEA][dK]-NH2
modifications: disulfide 1-6
SMILES: CC(=O)N[C@H]1CSSC[C@@H](C(=O)N[C@@H](Cc2ccc(O)cc2)C(=O)N[C@@H](Cc2c[nH]c3ccccc23)C(=O)N[C@@H](CCCNC(=N)N)C(=O)N[C@@H](CCCCN)C(=O)N[C@@H](CC(N)=O)C(=O)NCC(=O)NCCOCC(=O)N[C@H](CCCCN)C(N)=O)NC(=O)[C@H](CCC(N)=O)NC(=O)[C@H](Cc2c[nH]c3ccccc23)NC(=O)[C@H]([C@@H](C)O)NC(=O)[C@H](CCC(N)=O)NC1=O
B11: Ac-CQTWQCYWRENG-[AEA]-[(D)Arg]-NH2 (peptide)
peptide: Ac-CQTWQCYWRENG[AEA][dR]-NH2
modifications: disulfide 1-6
SMILES: CC(=O)N[C@H]1CSSC[C@@H](C(=O)N[C@@H](Cc2ccc(O)cc2)C(=O)N[C@@H](Cc2c[nH]c3ccccc23)C(=O)N[C@@H](CCCNC(=N)N)C(=O)N[C@@H](CCC(=O)O)C(=O)N[C@@H](CC(N)=O)C(=O)NCC(=O)NCCOCC(=O)N[C@H](CCCNC(=N)N)C(N)=O)NC(=O)[C@H](CCC(N)=O)NC(=O)[C@H](Cc2c[nH]c3ccccc23)NC(=O)[C@H]([C@@H](C)O)NC(=O)[C@H](CCC(N)=O)NC1=O
B12: Ac-CQTWQCYWRTNG-[AEA]-[(D)-Lys]-NH2 (peptide)
peptide: Ac-CQTWQCYWRTNG[AEA][dK]-NH2
modifications: disulfide 1-6
SMILES: CC(=O)N[C@H]1CSSC[C@@H](C(=O)N[C@@H](Cc2ccc(O)cc2)C(=O)N[C@@H](Cc2c[nH]c3ccccc23)C(=O)N[C@@H](CCCNC(=N)N)C(=O)N[C@H](C(=O)N[C@@H](CC(N)=O)C(=O)NCC(=O)NCCOCC(=O)N[C@H](CCCCN)C(N)=O)[C@@H](C)O)NC(=O)[C@H](CCC(N)=O)NC(=O)[C@H](Cc2c[nH]c3ccccc23)NC(=O)[C@H]([C@@H](C)O)NC(=O)[C@H](CCC(N)=O)NC1=O
B13: Ac-CQTWQCYWRENG-[AEA]-[(D)-Lys]-NH2 (peptide)
peptide: Ac-CQTWQCYWRENG[AEA][dK]-NH2
modifications: disulfide 1-6
SMILES: CC(=O)N[C@H]1CSSC[C@@H](C(=O)N[C@@H](Cc2ccc(O)cc2)C(=O)N[C@@H](Cc2c[nH]c3ccccc23)C(=O)N[C@@H](CCCNC(=N)N)C(=O)N[C@@H](CCC(=O)O)C(=O)N[C@@H](CC(N)=O)C(=O)NCC(=O)NCCOCC(=O)N[C@H](CCCCN)C(N)=O)NC(=O)[C@H](CCC(N)=O)NC(=O)[C@H](Cc2c[nH]c3ccccc23)NC(=O)[C@H]([C@@H](C)O)NC(=O)[C@H](CCC(N)=O)NC1=O
B14: Ac-CQTWQCYWRRNG-[AEA]-[(D)-Lys]-NH2 (peptide)
peptide: Ac-CQTWQCYWRRNG[AEA][dK]-NH2
modifications: disulfide 1-6
SMILES: CC(=O)N[C@H]1CSSC[C@@H](C(=O)N[C@@H](Cc2ccc(O)cc2)C(=O)N[C@@H](Cc2c[nH]c3ccccc23)C(=O)N[C@@H](CCCNC(=N)N)C(=O)N[C@@H](CCCNC(=N)N)C(=O)N[C@@H](CC(N)=O)C(=O)NCC(=O)NCCOCC(=O)N[C@H](CCCCN)C(N)=O)NC(=O)[C@H](CCC(N)=O)NC(=O)[C@H](Cc2c[nH]c3ccccc23)NC(=O)[C@H]([C@@H](C)O)NC(=O)[C@H](CCC(N)=O)NC1=O

Target: T1, IL23R_huFC
Assay: IL23-IL23R competitive ELISA

Row | IC50 | Binder
1 | > 1000 nM | Ac-CQTWQCYW[NMeE]NG[AEA][dK] (disulfide 1-6 (inferred)) [Ac-CQTWQCYW[N-MeGlu]-NG-[AEA]-[(D)-Lys]]
2 | > 1000 nM | Ac-CADWVC-NH2 (disulfide 1-6 (inferred)) [Ac-CADWVC-NH2]
3 | > 1000 nM | B1
4 | > 1000 nM | B2
5 | > 1000 nM | B3
6 | > 1000 nM | Ac-CADWVCY[Aic′]HTFG[AEA][dK]-NH2 (disulfide 1-6) [Ac-CADWVCY-[Aic]-HTFG-[AEA]-[(D)Lys]-NH2]
7 | > 1000 nM | B4
8 | > 1000 nM | B5
9 | > 1000 nM | B6
10 | > 1000 nM | Ac-CADWVCYWHRCGWWGC-NH2 (disulfide (positions not given here)) [Ac-CADWVCYWHRCGWWGC-NH2]

Target: T1, IL23R_huFC
Assay: IL23-IL23R competitive ELISA
Remark: another data set of the same source

Row | IC50 | Binder
11 | < 500 nM | Ac-CQDWQCYWRENG[AEA][dK]-NH2 (disulfide 1-6 (inferred)) [Ac-CQDWQCYWRENG-[AEA]-[(D)-Lys]-NH2]
12 | < 500 nM | B7
13 | < 500 nM | B8
14 | < 500 nM | B9
15 | < 500 nM | B10
16 | < 500 nM | B11
17 | < 500 nM | B12
18 | < 500 nM | B13
19 | < 500 nM | B14
